Patent US20190338048A1
Where two headings read alike, the source gives them in different places. One block for each substance: values may come before it.

Columns and labels:
[1] = biological target: Pertuzumab kappa light chain S121K_S131K_L135K; assay: LCCA, SPR tag read-out
[2] = biological target: CAT-2200 Fab heavy chain L143A_Q179K; assay: LCCA
[3] = biological target: CAT-2200 Fab heavy chain L143A_Q179K; assay: LCCA; remark: listed apart in the source
[4] = biological target: CAT-2200 Fab heavy chain S186K; assay: LCCA
[5] = biological target: CAT-2200 lambda light chain S122D_K129T_V133D_Y178T; assay: LCCA, SPR tag read-out
[6] = biological target: CAT-2200 lambda light chain S122D_K129T_V133D; assay: LCCA, SPR tag read-out
[7] = biological target: CAT-2200 lambda light chain S122D_V133D_Y178T; assay: LCCA, SPR tag read-out
[8] = biological target: Pertuzumab kappa light chain S121K_S131R_V133G_S176R; assay: LCCA, SPR tag read-out
[9] = biological target: Pertuzumab kappa light chain S121K_S131R_V133G_S176R; assay: LCCA, SPR tag read-out; remark: listed apart in the source
[10] = biological target: Pertuzumab kappa light chain S121K_S131R_V133G_S176R; assay: LCCA, SPR tag read-out; remark: listed apart in the source
[11] = biological target: CAT-2200 lambda light chain S176K_Y178K (L1), N-terminal FLAG tag; assay: LCCA, SPR of light chain tags
[12] = biological target: Pertuzumab kappa light chain V133L_S176D_T178E (L2), N-terminal HA tag; assay: LCCA, SPR of light chain tags
[13] = biological target: Pertuzumab kappa light chain V133I_S176D_T178E (L2), N-terminal HA tag; assay: LCCA, SPR of light chain tags
[14] = biological target: Pertuzumab kappa light chain V133I_S176E_T178E (L2), N-terminal HA tag; assay: LCCA, SPR of light chain tags
[15] = biological target: Pertuzumab kappa light chain V133L_S176D_T178E (L2), N-terminal HA tag; assay: LCCA, SPR of light chain tags; remark: listed apart in the source
[16] = biological target: Pertuzumab kappa light chain V133I_S176E_T178E (L2), N-terminal HA tag; assay: LCCA, SPR of light chain tags; remark: listed apart in the source
[17] = biological target: CAT-2200 lambda light chain S176K_Y178K (L1), N-terminal FLAG tag; assay: LCCA, SPR of light chain tags; remark: listed apart in the source

Substance: CAT-2200 lambda light chain K129T_V133W_S180E
H1L1:H1L2 median scalar value (ln(H1L1:H1L2)) [2]: 1.51
H1L1:H1L2 median scalar value (ln(H1L1:H1L2)) [3]: 0.88

Substance: CAT-2200 lambda light chain K129T_V133D_Y178T
H1L1:H1L2 median scalar value (ln(H1L1:H1L2)) [4]: 0.06

Substance: Pertuzumab Fab heavy chain V177I_S188K (H2), ABD2-His6 tagged
H2L2:H2L1 normalized median ratio [11]: 9%
H2L2:H2L1 normalized median scalar value ln(r1/f1) [12]: 0.55
H2L2:H2L1 normalized median ratio [13]: 91%
H2L2:H2L1 normalized median scalar value ln(r1/f1) [13]: 2.34
H2L2:H2L1 normalized median scalar value ln(r1/f1) [14]: 2.83
H2L2:H2L1 normalized median ratio [15]: 91%
H2L2:H2L1 normalized median scalar value ln(r1/f1) [15]: 2.37
H2L2:H2L1 normalized median scalar value ln(r1/f1) [16]: 2.79
H2L2:H2L1 normalized median ratio [17]: 9%

More lines, now with the values ahead:

H2L2:H2L1 median scalar value [1]: 0.25 ln(ratio)
Substance: Pertuzumab Fab heavy chain L124E_A139I_K145T_V190I_K228D

H2L2:H2L1 normalized median ratio [5]: 8%
H2L2:H2L1 normalized median ratio [6]: 5%
H2L2:H2L1 normalized median ratio [7]: 14%
H2L2:H2L1 median scalar value [8]: 1.9 ln(ratio)
H2L2:H2L1 normalized median ratio [8]: 86%
H2L2:H2L1 median scalar value [9]: 3.08 ln(ratio)
H2L2:H2L1 normalized median ratio [9]: 95%
H2L2:H2L1 median scalar value [10]: 2.42 ln(ratio)
H2L2:H2L1 normalized median ratio [10]: 92%
Substance: Pertuzumab Fab heavy chain L124E_K145T_Q179E_K228D
